Assay results: article PMC5087665

Biological target: CFF–Myc
Experiment: co-IP; Fig. 5D: HEK293T lysates co-expressing HA–TNPO1, CFF–Myc and GFP–Rab8-wt, GFP–Rab8-QL, GFP–Rab8-TN or GFP; anti-Myc immunoprecipitation; blotted for TNPO1 and GFP chimeras

Chain of HA–TNPO1 (Q92973 whole entry): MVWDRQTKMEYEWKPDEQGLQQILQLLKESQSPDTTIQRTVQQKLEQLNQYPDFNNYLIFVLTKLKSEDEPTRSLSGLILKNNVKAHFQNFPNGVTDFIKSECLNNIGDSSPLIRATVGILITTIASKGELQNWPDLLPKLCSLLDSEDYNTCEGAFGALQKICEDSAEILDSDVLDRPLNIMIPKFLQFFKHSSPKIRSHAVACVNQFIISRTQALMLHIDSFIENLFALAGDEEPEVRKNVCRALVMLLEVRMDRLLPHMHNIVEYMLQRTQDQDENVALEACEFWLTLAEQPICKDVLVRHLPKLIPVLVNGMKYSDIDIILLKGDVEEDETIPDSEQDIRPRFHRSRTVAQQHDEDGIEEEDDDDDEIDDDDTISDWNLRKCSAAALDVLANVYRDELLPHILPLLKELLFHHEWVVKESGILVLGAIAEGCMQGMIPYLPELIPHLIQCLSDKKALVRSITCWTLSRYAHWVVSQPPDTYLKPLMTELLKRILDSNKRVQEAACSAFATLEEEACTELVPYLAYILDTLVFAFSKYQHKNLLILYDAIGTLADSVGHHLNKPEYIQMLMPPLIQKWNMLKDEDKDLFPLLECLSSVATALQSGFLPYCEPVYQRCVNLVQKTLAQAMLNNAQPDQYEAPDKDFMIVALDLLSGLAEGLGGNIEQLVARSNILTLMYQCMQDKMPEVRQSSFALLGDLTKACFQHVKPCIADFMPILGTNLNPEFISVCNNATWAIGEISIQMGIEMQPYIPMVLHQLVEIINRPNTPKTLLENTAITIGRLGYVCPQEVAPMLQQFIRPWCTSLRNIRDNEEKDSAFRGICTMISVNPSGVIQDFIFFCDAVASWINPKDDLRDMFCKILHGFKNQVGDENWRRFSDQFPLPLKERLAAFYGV

## HA–TNPO1 (from UniProt Q92973 1-898) (natural protein)
  fold more TNPO1 co-immunoprecipitated with Rab8-TN co-expressed than with Rab8-QL or Rab8-wt: 3 fold
